# Where two headings read alike, the source gives them in different places.
# What was measured:
# [1] = animal daily doses 10 to 1,000 μg/kg for 30 days; human 2.5 to 100 μg/kg/day
# Description: Based upon safety evaluation studies in animals (where the daily doses tested ranged from 10 to 1,000 μg/kg for 30 days) and the pharmacology profile of, AII(1-7), the dose range used in humans ranged from 2.5 to 100 μg/kg/day over at least 10 days.
# [2] = system: patients with newly diagnosed breast cancer receiving doxorubicin and cyclophosphamide
# [3] = system: patients with newly diagnosed breast cancer receiving doxorubicin and cyclophosphamide; assay: Phase I/II dose escalation study of AII(1-7) before and after chemotherapy (Example 5); conditions: in vivo
# [4] = system: female C57B1/6 mice treated with 200 mg/kg cytoxan
# [5] = system: mice injected with 150 mg/kg 5FU intravenously (WBC, platelets, hemoglobin); assay: Effect of angiotensin fragments and ACE inhibitor on recovery after chemotherapy (Example 4); format: in vivo; conditions: after i.v. 5FU
# Description: The next study was designed to test the effect of angiotensin peptides and the angiotensin converting enzyme inhibitor, enalapril, on recovery of white blood cells, platelets and hemoglobin after chemotherapy, as well as on granulocyte-macrophage colony forming units (GM-CFU) in the blood and bone marrow.
# Female […] mice (4 per group), 6-8 weeks old, were injected with 150 mg/kg 5FU intravenously. Administration of the peptides (AII (100 μg/kg/day), AII(1-7) (10 or 100 μg/kg/day), AII(1-5) (10 or 100 μg/kg/day), and AII(1-6) (100 μg/kg/day)), by subcutaneous injection, or enalapril (30 mg/kg/day) by oral gavage, was begun 2 days after administration of the antineoplastic and continued daily until 28 days after 5FU administration, at which time the mice were euthanized for evaluation of white blood cell numbers, platelets, hemoglobin levels and the number of GM-CFU in the bone marrow and peripheral blood. On days 7, 10, 14 and 21 after 5FU administration, blood was taken under anesthesia from the retro-orbital sinus to assess white blood cell number, platelet number, and hemoglobin levels.
# The mice were bled from the retro-orbital sinus at days 7, 10, 14 and 21. The mice were anesthetized with Metofane (an inhaled anesthesia). Approximately 150-200 μl of blood were obtained from the retro-orbital sinus with a heparinzed capillary tube. The blood was then placed in a 1.7 ml microfuge tube containing 10 mM EDTA and held on ice until further processing.
# One hundred μl of blood was pipetted into a centrifuge tube, to which 900 μl of distilled water was added. The blood and water were mixed by inversion and allowed incubate at 4° C. for 20 minutes. The tube was then centrifuged at 12000 rpm to precipitate the cellular debri for 20 to 30 minutes at room temperature. Twenty μl of the supernatant from this centrifugation was then added into triplicate wells of a 96 well plate containing 180 μl of distilled water. The optical density, was then read using a microplate reader at […].
# Twenty μl of blood was mixed with 200 μl of red blood cell (RBC) lysing solution (0.83% NH4Cl, 10 mM EDTA, 0.5% NaHCO3). The mixture was then incubated for 10 minutes at 4° C. After this incubation, the supernatant was removed and the pellet was resuspended in 100 μl of PBS. To this, 100 μl of 0.04% trypan blue was added. This mixture was vortexed and the number of WBC (baseline was approximately 10^7 cells/ml) was evaluated by hematocytometer under light microscopy and the number: of platelets (baseline was approximately 2.5×10^8 platelets/ml) was evaluated by hematocytometer under phase contrast microscopy.
# The blood was harvested by cardiac puncture on day 10 to assess mobilization of myeloid progenitors into the peripheral blood. The femurs and tibia were also collected and the bone marrow was harvested by flushing with PBS containing 2% fetal calf serum. After collection of the blood and bone marrow, the red blood cells were lysed with a hypotonic solution (described above), mixed with 0.04% trypan blue, and the number of nucleated cells assessed by hematocytometer under light microscopy. Aliquots of cells were then resuspended at 1×10^5 cells/ml (bone marrow) or 1×10^6 cells/ml Flood). […]
substance,measurement,setting,value
Asp-Arg-Val-Tyr-Ile-His-Pro [AII(1-7)],safety margin of human dose range over the animal exposures,[1],9-10 fold
same,change in platelet number,[2]; 50 μg/kg/day AII(1-7),only day 12 showed any change in platelet number
same,dose-limiting toxicities,[2]; 2.5 to 100 μg/kg/d,No dose-limiting toxicities
same,Toxicity: ANC < 1000/μl (frequency),[2]; AII(1-7) 2.5 μg/kg,100%
same,Toxicity: Hgb < 10 gm/dl (frequency),[2]; AII(1-7) 2.5 μg/kg,66%
same,Toxicity: Lymph < 500/μl (frequency),[2]; AII(1-7) 2.5 μg/kg,66%
same,Toxicity: Platelet < 80 K/μl (frequency),[2]; AII(1-7) 2.5 μg/kg,0%
same,Toxicity: WBC < 2000/μl (frequency),[2]; AII(1-7) 2.5 μg/kg,66%
same,Toxicity: ANC < 1000/μl (frequency),[2]; AII(1-7) 10 μg/kg,100%
same,Toxicity: Hgb < 10 gm/dl (frequency),[2]; AII(1-7) 10 μg/kg,33%
same,Toxicity: Lymph < 500/μl (frequency),[2]; AII(1-7) 10 μg/kg,33%
same,Toxicity: Platelet < 80 K/μl (frequency),[2]; AII(1-7) 10 μg/kg,0%
same,Toxicity: WBC < 2000/μl (frequency),[2]; AII(1-7) 10 μg/kg,66%
same,Toxicity: ANC < 1000/μl (frequency),[2]; AII(1-7) 50 μg/kg,100%
same,Toxicity: Hgb < 10 gm/dl (frequency),[2]; AII(1-7) 50 μg/kg,0%
same,Toxicity: Lymph < 500/μl (frequency),[2]; AII(1-7) 50 μg/kg,33%
same,Toxicity: Platelet < 80 K/μl (frequency),[2]; AII(1-7) 50 μg/kg,0%
same,Toxicity: WBC < 2000/μl (frequency),[2]; AII(1-7) 50 μg/kg,66%
same,Toxicity: ANC < 1000/μl (frequency),[2]; AII(1-7) 75 μg/kg,100%
same,Toxicity: Hgb < 10 gm/dl (frequency),[2]; AII(1-7) 75 μg/kg,0%
same,Toxicity: Lymph < 500/μl (frequency),[2]; AII(1-7) 75 μg/kg,0%
same,Toxicity: Platelet < 80 K/μl (frequency),[2]; AII(1-7) 75 μg/kg,0%
same,Toxicity: WBC < 2000/μl (frequency),[2]; AII(1-7) 75 μg/kg,100%
same,Toxicity: ANC < 1000/μl (frequency),[2]; AII(1-7) 100 μg/kg,100%
same,Toxicity: Hgb < 10 gm/dl (frequency),[2]; AII(1-7) 100 μg/kg,0%
same,Toxicity: Lymph < 500/μl (frequency),[2]; AII(1-7) 100 μg/kg,0%
same,Toxicity: Platelet < 80 K/μl (frequency),[2]; AII(1-7) 100 μg/kg,0%
same,Toxicity: WBC < 2000/μl (frequency),[2]; AII(1-7) 100 μg/kg,33%
same,platelets,[2]; across doses,dose-dependent increase in platelets
same,restoration of hemoglobin prior to the next cycle,[2]; all doses,restoration of hemoglobin prior to the next cycle was observed
same,over-production of formed blood elements,[2]; before or after chemotherapy,No over-production of formed blood elements
same,Alopecia (frequency by treatment group),[2]; chemotherapy patients,46%
same,Anemia (frequency by treatment group),[2]; chemotherapy patients,7%
same,Fatigue (frequency by treatment group),[2]; chemotherapy patients,93%
same,Headache (frequency by treatment group),[2]; chemotherapy patients,26%
same,Myalgia/Muscle-skeletal pain (frequency by treatment group),[2]; chemotherapy patients,53%
same,Nausea (frequency by treatment group),[2]; chemotherapy patients,93%
same,Stomatitis (frequency by treatment group),[2]; chemotherapy patients,40%
same,Vomiting (frequency by treatment group),[2]; chemotherapy patients,80%
same,frequency of grade 2-4 anemia,[2]; compared to filgrastim,reduced the frequency
same,frequency of grade 2-4 thrombocytopenia,[2]; compared to filgrastim,reduced the frequency
same,frequency of grade 3-4 lymphopenia,[2]; compared to filgrastim,reduced the frequency
same,late neutrophil recovery,[2]; compared to filgrastim,enhanced compared to filgrastim
same,synergy between filgrastim and AII(1-7),"[2]; following 10-12 days of AII(1-7), as little as 1 dose of filgrastim normalizes the neutrophil count",possible synergy
same,"ability to maintain on cycle, full intensity chemotherapy",[2]; in vivo,permitted the patients to maintain full intensity chemotherapy on cycle
same,cycle delays due to neutropenia,[2]; in vivo,No cycle delays due to neutropenia
same,dose at which anemia correction with each cycle was observed,[2]; in vivo,≥ 2.5 µg/kg
same,dose intensity of chemotherapy received by all study patients,[2]; in vivo,100%
same,doses that appear to be active,[2]; in vivo,greater than 10 μg/kg/day
same,hematopoietic lineages,[2]; in vivo,increase in multiple hematopoietic lineages
same,level of nadir in number of white blood cells and absolute neutrophil count and time to these nadirs,[2]; in vivo,dose dependent increase
same,mobilization of hematopoietic progenitors into the peripheral blood,[2]; in vivo,mobilization of hematopoietic progenitors into the peripheral blood
same,neutrophil nadirs,[2]; in vivo,not affected
same,optimal dosage range,[2]; in vivo,50 to 75 µg/kg/day
same,recovery towards baseline in formed blood elements,[2]; in vivo,improves the recovery towards baseline in all formed blood elements
same,day of nadir in platelet number,[2]; lowest dose of AII(1-7),12 days
same,hemoglobin after chemotherapy,[2]; lowest dose of AII(1-7),reduction in hemoglobin was observed
same,hemoglobin level by the next cycle,[2]; lowest dose of AII(1-7),returned to baseline levels by the next cycle
same,change in platelet number,[2]; next higher dose than 50 μg/kg/day,no decrease in platelet number occurred
same,reduction of the frequency of stomatitis,[2]; of that observed with filgrastim treatment,30%
same,doses of filgrastim needed at day 15 to treat grade 4 neutropenia,[2]; patients treated at 2.5 and 10 μg/kg AII(1-7),1-2 doses
same,acute effect on blood pressure following administration,[2]; patients with or without a history of hypertension,No acute affect on blood pressure
same,"frequency of headache, muscle pain and alopecia",[2]; relative to historical numbers and filgrastim controls,decreasing the frequency
same,anemia,[2]; subsequent dose increases of AII(1-7),slight to no anemia
same,drug related serious adverse events,[3],No drug related serious adverse events
same,safety (summary),[3],safe without observed dose limiting toxicities
same,number of GM-CFU in the bone marrow,"[4]; 100 μg/kg/day, started 2 days prior to cytoxan",slightly reduced
same,number of myeloid progenitor cells in the bone marrow,[4]; administration initiated 2 days after chemotherapy,increased the number of myeloid progenitor cells in the bone marrow
same,number of myeloid progenitors in the peripheral blood,[4]; administration initiated after cyclophosphamide treatment,increased the number of myeloid progenitors in the peripheral blood
same,recovery of WBC after intravenous cyclophosphamide,[4]; s.c. treatment initiated two days after the chemotherapeutic,accelerated the recovery of WBC
same,time after cyclophosphamide at which increase in WBC number was observed,[4]; treatment initiated two days after cyclophosphamide,≤ 9 days
same,WBC number compared with control,"[4]; treatment initiated two days prior to cyclophosphamide, starting on day 14",decrease in WBC number compared with control
same,platelets after administration,[5],increase in platelets

# — patent publication US7338938B2, “Methods for treating a patient undergoing chemotherapy” (University of Southern California, priority 1999, dated 2008)
